Like-named read-outs stand apart in the source and are kept apart here. Each block holds one molecule with its values, some of them ahead of it.
Columns and labels:
[1] = biological target: APC PRM (Homo sapiens) (UniProt P25054); details: cited from earlier work
[2] = biological target: ASAP1-SH3 (residue 1087–1147) (mouse) (UniProt Q9QWY8); experiment: ITC; PEAQ-ITC; 400 μM in the syringe, 40 μM in the cell; 50 mM Tris pH 7.5, 100 mM NaCl, 1 mM DTT, 1 mM EDTA; one-site binding model
[3] = biological target: T1, ASAP1-SH3 (residue 1087–1147) (mouse, UniProt Q9QWY8 1087-1147); experiment: ITC
T1 chain: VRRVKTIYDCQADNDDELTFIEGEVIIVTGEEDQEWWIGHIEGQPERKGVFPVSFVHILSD

[4] = biological target: T2, SKAP1-SH3 (residue 294–355) (human, UniProt Q86WV1 294-355); experiment: ITC; PEAQ-ITC; 400 μM in the syringe, 40 μM in the cell; 50 mM Tris pH 7.5, 100 mM NaCl, 1 mM DTT, 1 mM EDTA; one-site binding model; details: both partners purified
T2 construct: SKAP1 (Src kinase associated phosphoprotein 1), human, SH3 domain, residue 294-355; also called SH3^AGS of SKAP1; source: E. coli BL21(DE3), purified (Ni-NTA, Superdex-200 gel filtration)
T2 sequence (looked up): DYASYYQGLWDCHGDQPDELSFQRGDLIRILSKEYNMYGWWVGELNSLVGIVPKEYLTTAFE

[5] = biological target: T3, GRAF2-SH3 (residue 728–786) (human, UniProt A1A4S6 728-786); experiment: as above; details: both partners purified
T3 construct: GRAF2 (GTPase Regulator associated with focal adhesion kinase 2), human, SH3 domain, residue 728-786; also called SH3^AGS of GRAF2; source: E. coli BL21(DE3), purified (Ni-NTA, Superdex-200 gel filtration)
T3 sequence (looked up): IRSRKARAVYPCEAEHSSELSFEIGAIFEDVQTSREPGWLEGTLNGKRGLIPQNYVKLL

[6] = biological target: T4, ASAP1-SH3 (residue 1087–1147) (mouse, UniProt Q9QWY8 1087-1147); experiment: as above; details: both partners purified
T4 construct: ASAP1, mouse, SH3 domain, residue 1087-1147; The Trx-His6 tag is followed by a 3C protease cleavage site; The limits are stated for the crystallisation; also called SH3 domain of ASAP1; source: E. coli BL21(DE3), purified (Ni-NTA, Superdex-200 gel filtration)
T4 sequence (looked up): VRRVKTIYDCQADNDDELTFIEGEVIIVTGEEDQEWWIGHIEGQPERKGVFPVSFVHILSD

[7] = biological target: T5, ASAP1-SH3 (residue 1087–1147), Q9QWY8; experiment: ITC; details: chain shown with the change
T5 chain: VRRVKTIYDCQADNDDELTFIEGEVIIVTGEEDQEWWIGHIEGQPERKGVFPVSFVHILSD

[8] = biological target: T6, MICAL1-PRM, Q8TDZ2; experiment: ITC; details: chain shown with the change
T6 chain: EPPPKPPRSCSALAR

[9] = biological target: T7, FYB1 (Homo sapiens (Human), UniProt O15117); experiment: ITC, Trx fusions
T7 chain: TLGPPPPKPNRPPNV

[10] = biological target: T8, FAK1 (Homo sapiens (Human), UniProt Q05397); experiment: ITC, Trx fusions
T8 chain: EAPPKPSRPGYPSPR

[11] = biological target: T9, MICAL1 (Homo sapiens (Human), UniProt Q8TDZ2); experiment: ITC, Trx fusions
T9 chain: EPPPKPPRSCSALAR

[12] = biological target: T10, SKAP1-SH3 (residue 294–355) (human, UniProt Q86WV1 294-355); experiment: ITC
T10 chain: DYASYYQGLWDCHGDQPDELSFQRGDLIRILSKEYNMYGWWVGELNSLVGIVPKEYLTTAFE

[13] = biological target: T11, GRAF2-SH3 (residue 728–786) (human, UniProt A1A4S6 728-786); experiment: ITC
T11 chain: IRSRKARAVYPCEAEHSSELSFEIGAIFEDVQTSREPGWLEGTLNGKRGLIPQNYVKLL

[14] = biological target: T1, ASAP1-SH3 (residue 1087–1147); experiment: ITC

Molecule: ASAP1 SH3 (from UniProt Q9ULH1)
Kd [1]: 24 µM

Molecule: EPPPKPPRSCSALAR [MICAL1-PRM]
Kd [2]: 1 µM
Kd [3]: 0.8 µM

B3: ASAP1-SH3 (residue 1087–1147), Q9QWY8 D1099K (protein)
chain: VRRVKTIYDCQAKNDDELTFIEGEVIIVTGEEDQEWWIGHIEGQPERKGVFPVSFVHILSD
Kd [8]: 109 µM

B4: ASAP1-SH3 (residue 1087–1147), Q9QWY8 C1096F (protein)
chain: VRRVKTIYDFQADNDDELTFIEGEVIIVTGEEDQEWWIGHIEGQPERKGVFPVSFVHILSD
Kd [8]: 15.7 µM

B5: ASAP1_SH3 (protein)
chain: VRRVKTIYDCQADNDDELTFIEGEVIIVTGEEDQEWWIGHIEGQPERKGVFPVSFVHILSD
Kd [9]: 7.59 µM
Kd [10]: 1.97 µM
Kd [11]: 0.82 µM

Molecule: RPPNVDLTKFHKTSS [FYB1-PRM (residue 362–376)]
Kd [12]: 0.29 µM
Kd [13]: 3.14 µM
Kd [14]: 7.59 µM

B7: GRAF2_SH3 (protein)
chain: IRSRKARAVYPCEAEHSSELSFEIGAIFEDVQTSREPGWLEGTLNGKRGLIPQNYVKLL
Kd [9]: 3.14 µM
Kd [10]: 6.06 µM
Kd [11]: 1.33 µM

Molecule: EPPPPPPRSCSALAR [MICAL1-PRM, Q8TDZ2 K832P]
Kd [7]: 17 µM

Now from value to molecule:

binding result [4]: binds
binding result [5]: binds
binding result [6]: binds
B1: FAK1-PRM (residue 710–724) (peptide, UniProt Q05397 710-724, looked up)
chain: EAPPKPSRPGYPSPR
notes: FAK1, human, proline rich motif, residue 710-724; also called PRM^Px+P from FAK1; source: E. coli BL21(DE3), purified (Ni-NTA, Superdex-200 gel filtration)

Kd [3]: 1.1 µM
B2: MICAL1-loop3 (domain or fragment)
chain: AEGSDRGPESPELPTPSENSMPPGLSTPTASQEGAGPVPDPSQPTRRQIRLSSPERQRLSSLNLTPDPEMEPPPKPPRSCSALARHALESSFVGWGLPVQSPQALVAMEKEEKESPFSSEEEEEDVPLDSDVEQALQTFAKTSGTMNNYPTWRRTLLRRA

Kd [7]: 0.35 µM
Molecule: EPPPRPPRSCSALAR [MICAL1-PRM, Q8TDZ2 K832R]

Kd [9]: 0.29 µM
Kd [10]: 7.08 µM
Kd [11]: 5.99 µM
B6: SKAP1_SH3 (protein)
chain: DYASYYQGLWDCHGDQPDELSFQRGDLIRILSKEYNMYGWWVGELNSLVGIVPKEYLTTAFE
